Source: paper PMC8809517, “Cofactor-independent RNA editing by a synthetic S-type PPR protein”

T1: GFP-9S library array, motif 4 ND D124G (synthetic construct, D124G)
T1 chain: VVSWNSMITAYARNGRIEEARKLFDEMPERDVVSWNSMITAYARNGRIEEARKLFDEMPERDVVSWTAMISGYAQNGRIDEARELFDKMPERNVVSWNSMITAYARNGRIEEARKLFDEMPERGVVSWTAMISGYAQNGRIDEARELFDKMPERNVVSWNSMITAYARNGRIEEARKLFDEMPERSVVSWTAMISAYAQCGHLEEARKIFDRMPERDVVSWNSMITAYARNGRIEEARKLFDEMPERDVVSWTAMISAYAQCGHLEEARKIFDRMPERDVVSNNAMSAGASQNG

T2: GFP-9S library array, motif 4 ND N98L;D124W (synthetic construct, N98L;D124W)
T2 chain: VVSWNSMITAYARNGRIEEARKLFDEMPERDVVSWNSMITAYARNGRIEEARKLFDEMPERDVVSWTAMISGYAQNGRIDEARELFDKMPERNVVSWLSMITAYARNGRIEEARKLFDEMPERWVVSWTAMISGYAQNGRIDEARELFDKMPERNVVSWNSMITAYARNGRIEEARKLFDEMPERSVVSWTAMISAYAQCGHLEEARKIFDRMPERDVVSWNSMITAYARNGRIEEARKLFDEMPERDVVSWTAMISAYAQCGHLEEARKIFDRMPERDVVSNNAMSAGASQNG

T3: GFP-9S library array, motif 4 ND N98P;D124Y (synthetic construct, N98P;D124Y)
T3 chain: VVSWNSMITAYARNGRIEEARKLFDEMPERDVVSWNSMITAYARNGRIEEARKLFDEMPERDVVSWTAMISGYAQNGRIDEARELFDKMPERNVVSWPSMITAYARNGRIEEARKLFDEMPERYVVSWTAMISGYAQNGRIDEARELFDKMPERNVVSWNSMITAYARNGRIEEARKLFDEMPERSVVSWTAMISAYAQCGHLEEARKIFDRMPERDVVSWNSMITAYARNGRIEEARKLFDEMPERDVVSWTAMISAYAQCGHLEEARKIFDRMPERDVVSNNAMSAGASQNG

T4: GFP-9S library array, motif 4 ND N98G;D124R (synthetic construct, N98G;D124R)
T4 chain: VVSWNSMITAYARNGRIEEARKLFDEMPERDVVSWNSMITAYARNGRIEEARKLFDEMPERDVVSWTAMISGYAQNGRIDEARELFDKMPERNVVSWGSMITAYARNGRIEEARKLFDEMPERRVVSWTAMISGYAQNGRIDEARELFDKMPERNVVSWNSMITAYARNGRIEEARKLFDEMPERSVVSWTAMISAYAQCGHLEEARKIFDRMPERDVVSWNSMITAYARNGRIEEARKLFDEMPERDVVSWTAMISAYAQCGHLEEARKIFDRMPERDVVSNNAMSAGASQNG

T5: GFP-9S library array, motif 4 ND D124L (synthetic construct, D124L)
T5 chain: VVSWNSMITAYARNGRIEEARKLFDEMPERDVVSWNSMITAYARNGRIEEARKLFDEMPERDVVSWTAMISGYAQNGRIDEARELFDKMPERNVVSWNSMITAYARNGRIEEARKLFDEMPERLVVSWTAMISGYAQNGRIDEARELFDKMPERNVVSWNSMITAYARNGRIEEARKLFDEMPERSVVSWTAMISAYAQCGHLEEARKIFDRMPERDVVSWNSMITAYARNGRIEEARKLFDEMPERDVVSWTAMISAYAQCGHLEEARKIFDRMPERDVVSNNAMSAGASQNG


Key:
Assay in all cases: high-throughput RNA pulldown from lysate on Ni-NTA beads; HRP: 50 mM Tris pH 8, 150 mM NaCl, 1 mM beta-mercaptoethanol, 50 ug/ml BSA, 3 ug/ml yeast RNA, 0.5% heparin; ITC and FP: Tris pH 8, 200 mM KCl, 5% glycerol; MST: 50 mM Tris pH 8, 200 mM NaCl, 1 mM DTT, BSA, heparin, 0.05% Tween 20
Details in all cases: tags: N-terminal His-eGFP
[1] = target: T1, GFP-9S library array, motif 4 ND D124G
[2] = target: T2, GFP-9S library array, motif 4 ND …
[3] = target: T3, GFP-9S library array, motif 4 ND …
[4] = target: T4, GFP-9S library array, motif 4 ND …
[5] = target: T5, GFP-9S library array, motif 4 ND D124L

Row | Binder | Kd ([1]; label: 5' IRDye 800CW) [nM] | Kd ([2]; label: 5' IRDye 800CW) [nM] | Kd ([3]; label: 5' IRDye 800CW) [nM] | Kd ([4]; label: 5' IRDye 800CW) [nM] | Kd ([5]; label: 5' IRDye 800CW) [nM] | Kd ([1]; label: 5' Cy5) [nM] | Kd ([2]; label: 5' Cy5) [nM] | Kd ([3]; label: 5' Cy5) [nM] | Kd ([4]; label: 5' Cy5) [nM] | Kd ([5]; label: 5' Cy5) [nM]
1 | AUUAUACGUGA (ssRNA) [IR-rpoA-U] | 30.7 | 248 | 299 | 116 | 96.6 | – | – | – | – | –
2 | AUUAAACGUGA (ssRNA) [IR-rpoA-A] | 136 | 247 | 416 | 158 | 291 | – | – | – | – | –
3 | AUUAGACGUGA (ssRNA) [Cy5-rpoA-G] | – | – | – | – | – | 445 | 99.9 | 168 | 115 | 131
4 | AUUACACGUGA (ssRNA) [Cy5-rpoA] | – | – | – | – | – | 30.7 | 111 | 146 | 100 | 105
